We go through one molecule from article PMC11543927, “Subtleties in Clathrin heavy chain binding boxes provide selectivity among adaptor proteins of budding yeast” (Nature Communications, 2024).

For assay [1], the system named is Abp1-mTurquoise2 at endocytic sites. Description: Lifetime TIRF microscopy, Abp1+ / Abp1- endocytic events of Ent1/Ent2-mNeonGreen. It is filed as cell-based, Saccharomyces cerevisiae. To be noted: Supp. Figure 12; Ent1-mNeonGreen in yeast strains with Chc WT or box mutants (Cla, Cla + Arr, Cla + W); Type ABP+; average of single points. On the procedure: To determine the effect of mutating the CHC-NTD Clathrin, Arrestin and W-boxes in how endocytosis progresses, cells tagged with Ent1/2p-mNeonGreen, Chc-mScarlet and Abp1-mTurquoise2 were used. Yeast cells previously described were grown overnight at 30 °C with shaking in a 24-well plate using LD(=low-fluorescence SD)-Trp^-, Leu^- medium (yeast nitrogen base without amino acids supplemented with the corresponding DropOut media, Foredium, CYN402). Cells were diluted in fresh medium with a starting OD600nm of 0.1 and allowed to grow at 30 °C with shaking for several hours (4-6hs) until they reached log phase (OD600nm 0.6-1.2). Micro slide 8-well glass bottom plates (Catalog 80807, Ibidi, Gräfelfing, Germany) were treated with 50 µL of a 1 mg/ml concanavalin A (prepared in 10 mM sodium phosphate buffer pH 6, 10 mM CaCl2,1 mM MnCl2, 0.01% NaN3, Catalog C2010, Sigma Aldrich) solution, incubated for 5 min and then washed twice with 50 µL of fresh medium. 50 µL of cell suspension was applied, incubated for 5 min and removed. Then each well was washed twice with 50 µL of fresh medium. Finally, 50 µL of fresh medium was added. […]

For assay [2], the target named is T1, Chc-mScarlet Clathrin box mutant (K63E, I87D, Q89A, K98E) (Saccharomyces cerevisiae, UniProt P22137 1-1653, K63E | I87D | Q89A | K98E).
T1 construct: Clathrin heavy chain, Saccharomyces cerevisiae, the ORF of CHC1 fused in the 3' with mScarlet, Clathrin box mutant; also called Cla mutant; source: S. cerevisiae MK100, mutated plasmid pRS315-5'UTR CHC-mScarlet, endogenous CHC1 knocked out, in living cells; not shown: mScarlet, C-terminal, kept
The assay is described as follows: FRET or BRET; acceptor photobleaching FRET in living yeast cells at endocytic patches stalled with Latrunculin A, donor mNeonGreen on Ent1/Ent2, acceptor mScarlet on Chc, 21 °C; trimmed mean FRET efficiency. As to conditions: partners not purified. In general terms: Bioluminescence resonance energy transfer reports proximity on the nanometre scale.

The target in assay [3] is T2, Chc-mScarlet Clathrin and W box mutant (Cla+W) (Saccharomyces cerevisiae, UniProt P22137 1-1653, F26A | K63E | I87D | Q89A | K98E | Q155A).
T2 construct: Clathrin heavy chain, Saccharomyces cerevisiae, the ORF of CHC1 fused in the 3' with mScarlet, Clathrin and W box mutant; source: S. cerevisiae MK100, mutated plasmid pRS315-5'UTR CHC-mScarlet, endogenous CHC1 knocked out, in living cells; not shown: mScarlet, C-terminal, kept
The assay is described as above. As to conditions: partners not purified.

The target of assay [4] is T3, Chc-mScarlet Clathrin and Arrestin box mutant (Cla+Arr) (Saccharomyces cerevisiae, UniProt P22137 1-1653, K63E | I87D | Q89A | K98E | Q195A | I197T | K251E).
T3 construct: Clathrin heavy chain, Saccharomyces cerevisiae, the ORF of CHC1 fused in the 3' with mScarlet, Clathrin and Arrestin box mutant; source: S. cerevisiae MK100, mutated plasmid pRS315-5'UTR CHC-mScarlet, endogenous CHC1 knocked out, in living cells; not shown: mScarlet, C-terminal, kept
Described as above. To be noted: partners not purified.

In assay [5] the target is T4, Clathrin heavy chain fused to mScarlet (Chc-mScarlet), wild type (Saccharomyces cerevisiae, UniProt P22137 1-1653).
T4 construct: Clathrin heavy chain, Saccharomyces cerevisiae, the ORF of CHC1 fused in the 3' with mScarlet; also called Chc1-mScarlet; ScCHC-mScarlet; not shown: mScarlet, C-terminal, kept
Described as above. As to conditions: partners not purified.

For assay [6], the target named is T5, Chc-mScarlet Clathrin, Arrestin and W box mutant (Cla+Arr+W) (Saccharomyces cerevisiae, UniProt P22137 1-1653, F26A | K63E | I87D | Q89A | K98E | Q155A | Q195A | I197T | K251E).
T5 construct: Clathrin heavy chain, Saccharomyces cerevisiae, the ORF of CHC1 fused in the 3' with mScarlet, Clathrin, Arrestin and W box mutant; also called triple mutant; source: S. cerevisiae MK100, mutated plasmid pRS315-5'UTR CHC-mScarlet, endogenous CHC1 knocked out, in living cells; not shown: mScarlet, C-terminal, kept
The description is as above. To be noted: partners not purified.

T4 sequence (P22137 whole entry, the tested form may be a part): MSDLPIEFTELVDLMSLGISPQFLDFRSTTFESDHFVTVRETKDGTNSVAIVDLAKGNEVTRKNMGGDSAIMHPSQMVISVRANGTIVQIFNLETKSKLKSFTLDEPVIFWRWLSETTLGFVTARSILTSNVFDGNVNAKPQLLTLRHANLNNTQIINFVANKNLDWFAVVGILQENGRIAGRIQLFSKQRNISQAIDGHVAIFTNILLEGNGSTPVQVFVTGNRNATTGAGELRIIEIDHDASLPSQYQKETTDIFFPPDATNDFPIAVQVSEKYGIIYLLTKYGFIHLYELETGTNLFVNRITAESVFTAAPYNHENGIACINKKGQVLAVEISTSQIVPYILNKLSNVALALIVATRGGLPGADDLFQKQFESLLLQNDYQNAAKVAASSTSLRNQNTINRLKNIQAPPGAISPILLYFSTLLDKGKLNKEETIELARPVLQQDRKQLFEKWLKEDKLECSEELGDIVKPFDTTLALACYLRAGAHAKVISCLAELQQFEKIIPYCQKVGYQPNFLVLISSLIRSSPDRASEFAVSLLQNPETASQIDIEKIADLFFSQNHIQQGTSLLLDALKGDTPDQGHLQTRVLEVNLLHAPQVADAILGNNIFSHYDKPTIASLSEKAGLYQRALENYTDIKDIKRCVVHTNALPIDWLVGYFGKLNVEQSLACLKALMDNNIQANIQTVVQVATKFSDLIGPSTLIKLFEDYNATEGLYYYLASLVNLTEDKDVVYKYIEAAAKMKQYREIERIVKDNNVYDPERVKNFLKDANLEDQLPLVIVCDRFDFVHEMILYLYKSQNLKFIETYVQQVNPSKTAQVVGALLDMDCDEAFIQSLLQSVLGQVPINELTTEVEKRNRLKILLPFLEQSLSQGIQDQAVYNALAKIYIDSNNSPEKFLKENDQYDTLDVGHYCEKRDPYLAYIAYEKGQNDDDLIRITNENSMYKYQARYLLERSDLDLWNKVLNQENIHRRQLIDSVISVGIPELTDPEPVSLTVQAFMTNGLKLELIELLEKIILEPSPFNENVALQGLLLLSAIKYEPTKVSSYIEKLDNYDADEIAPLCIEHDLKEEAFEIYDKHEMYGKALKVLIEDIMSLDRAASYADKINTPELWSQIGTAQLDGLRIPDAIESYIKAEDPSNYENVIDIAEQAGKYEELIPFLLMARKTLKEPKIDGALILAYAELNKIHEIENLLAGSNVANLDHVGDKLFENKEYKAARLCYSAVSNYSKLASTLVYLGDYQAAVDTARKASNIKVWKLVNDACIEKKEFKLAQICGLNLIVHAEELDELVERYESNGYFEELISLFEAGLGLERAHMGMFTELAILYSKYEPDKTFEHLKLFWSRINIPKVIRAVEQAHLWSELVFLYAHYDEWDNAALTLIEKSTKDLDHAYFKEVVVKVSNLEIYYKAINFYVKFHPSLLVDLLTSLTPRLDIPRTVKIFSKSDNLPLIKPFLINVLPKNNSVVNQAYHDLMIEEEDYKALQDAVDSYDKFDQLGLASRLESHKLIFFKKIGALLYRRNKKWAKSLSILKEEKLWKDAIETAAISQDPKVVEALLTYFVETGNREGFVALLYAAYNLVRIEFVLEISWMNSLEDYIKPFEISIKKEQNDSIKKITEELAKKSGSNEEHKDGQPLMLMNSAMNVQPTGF
T2 sequence (P22137 whole entry F26A/K63E/I87D/Q89A/K98E/Q155A, the tested form may be a part): as the sequence (P22137 whole entry, the tested form may be a part) above, with F26A, K63E, I87D, Q89A, K98E, Q155A counted along it
T3 sequence (P22137 whole entry K63E/I87D/Q89A/K98E/Q195A/I197T/K251E, the tested form may be a part): as the sequence (P22137 whole entry, the tested form may be a part) above, with K63E, I87D, Q89A, K98E, Q195A, I197T, K251E counted along it
T1 sequence (P22137 whole entry K63E/I87D/Q89A/K98E, the tested form may be a part): as the sequence (P22137 whole entry, the tested form may be a part) above, with K63E, I87D, Q89A, K98E counted along it
T5 sequence (P22137 whole entry F26A/K63E/I87D/Q89A/K98E/Q155A/Q195A/I197T/K251E, the tested form may be a part): as the sequence (P22137 whole entry, the tested form may be a part) above, with F26A, K63E, I87D, Q89A, K98E, Q155A, Q195A, I197T, K251E counted along it

B1: Ent1 endogenously tagged with mNeonGreen (Ent1-mNeonGreen) (natural protein, UniProt Q12518 1-454, looked up)
chain: MSKQFVRSAKNLVKGYSSTQVLVRNATSNDNHQVSKDSLIELAEKSYDSADFFEIMDMLDKRLNDKGKYWRHIAKALTVIDYLIRFGSENCVLWCRENLYIIKTLKEFRHEDDEGIDQGQIVRVKAKELTALLSDDERLNEERNMNIKGRNRKGRRRRGTGRSDENDDDLQRAISASRLTAEEDERRRKQDEDYETALQLSKEEEELKRLQDLQRMQQQQGQQQLQQPMYYDIFGNPITPEEYAQFQLQQQQQQQQQQLQQQPMYYDVFGNPITPEELAQFQQQQQLQEQQYLASMQQQQQAMSNNPFAKSEQSSSSPKRNQLVAASSPQQLQQQKQQEPLIQNRTGNQSMTDKYSKLNELLATGTGIDTFGNVGEARIPAQHTKTGTFINSQGTGYRQVSDDPNHNPFLNSQYTGLPSTSVVPTQTGYGFGNQSQQQSQNNGSNNRGYTLIDL
notes: epsin Ent1, Saccharomyces cerevisiae, endogenous locus tagged with mNeonGreen; also called Ent1p; source: endogenously tagged, S. cerevisiae MK100, in living cells
B1: the “Frequency of ABP+ (Abp1-positive) endocytic events, Average” value in assay [1] was 33.3. For the same molecule, the FRET efficiency in assay [2] was approximately 5%; in assay [3] it was 5.93%; in assay [4] it was 5.25%; in assay [5], approximately 8%; in assay [6] it was 4.66%.
